The source of these data is patent publication US20240108738A1, “BICYCLIC PEPTIDE LIGANDS SPECIFIC FOR NK CELLS” (Bicycle Tx Limited, priority 2021, published 2024).

The target in the experiment is human CD16a F176 variant, biotinylated (human) (UniProt P08637). Briefly: AlphaScreen competition: 10 nM C-terminally biotinylated CD16a F176, mouse IgG2a-conjugated acceptor beads as competed ligand.
Sequence of human CD16a F176 variant, biotinylated (human) (P08637 17-208 limits assumed, change not shown): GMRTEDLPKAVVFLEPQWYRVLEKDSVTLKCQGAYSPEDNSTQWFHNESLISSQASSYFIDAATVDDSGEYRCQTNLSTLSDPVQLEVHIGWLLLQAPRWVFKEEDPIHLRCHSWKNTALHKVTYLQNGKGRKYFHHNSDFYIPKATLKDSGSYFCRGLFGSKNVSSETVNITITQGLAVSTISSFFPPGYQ

IgG positive control (antibody) displayed an IC50 (read off the curve) of 50 nM.
